Literature values in patent publication US20250388691A1, “METHODS FOR TREATING LYMPHOMA” (Xencor, Inc., priority 2022, published 2025).

Columns and labels:
R/R DLBCL = details: ongoing Phase 1 study XmAb13676-01, NCT02924402
[1] = plamotamab, Investigator's Brochure, 2021

plamotamab: humanized bsAb that binds both CD3 and the tumor antigen CD20; Fab-scFv-Fc format
responses in subjects with R/R DLBCL (R/R DLBCL): durable responses
TLS, R/R NHL subjects (Phase 1 monotherapy, 2 of the 80 R/R NHL subjects): 2.5%
any-grade TLS, subjects (Phase 1 monotherapy, CD20-expressing hematologic malignancies, 4 of 96 subjects): 4.2%
CRS (XmAb13676-01 study, especially with the Cycle 1 Day 1 dose): frequently observed
serious or fatal events of TLS (plamotamab monotherapy in R/R DLBCL): no serious or fatal events of TLS
Adverse events of neutropenia (all grades) [1]: 20.8%
Adverse events of thrombocytopenia (all grades) [1]: 24.0%
